Data taken from the DeepSol protein solubility set.

Assay: soluble on expression in E. coli; label from the status in PepcDB or PDB records

| Sequence | soluble on expression in E. coli |
| --- | --- |
| MHHHHHHSSGRENLYFQGKLPEPQFYAEPHTYEEPGRAGRSFTREIEASRIHIEKIIGSGDSGEVCYGRLRVPGQRDVPVAIKALKAGYTERQRRDFLSEASIMGQFDHPNIIRLEGVVTRGRLAMIVTEYMENGSLDTFLRTHDGQFTIMQLVGMLRGVGAGMRYLSDLGYVHRDLAARNVLVDSNLVCKVSDFGLSRVLEDDPDAAYTTTGGKIPIRWTAPEAIAFRTFSSASDVWSFGVVMWEVLAYGERPYWNMTNRDVISSVEEGYRLPAPMGCPHALHQLMLDCWHKDRAQRPRFSQIVSVLDALIRSPESLRATATVS | soluble |
| MHHHHHHSSGRENLYFQGMTVREKTRLEKFRQLLSSQNTDLDELRKCSWPGVPREVRPITWRLLSGYLPANTERRKLTLQRKREEYFGFIEQYYDSRNEEHHQDTYRQIHIDIPRTNPLIPLFQQPLVQEIFERILFIWAIRHPASGYVQGINDLVTPFFVVFLSEYVEEDVENFDVTNLSQDMLRSIEADSFWCMSKLLDGIQDNYTFAQPGIQKKVKALEELVSRIDEQVHNHFRRYEVEYLQFAFRWMNNLLMRELPLRCTIRLWDTYQSEPEGFSHFHLYVCAAFLIKWRKEILDEEDFQGLLMLLQNLPTIHWGNEEIGLLLAEAYRLKYMFADAPNHYRR | soluble |
| MHHHHHHSSGRENLYFQGNAVLTWNNEILPNWETMWCSRKVRDLWWQGIPPSVRGKVWSLAIGNELNITHELFDICLARAKERWRSLSTGGSEVENEDAGFSAADREASLELIKLDISRTFPNLCIFQQGGPYHDMLHSILGAYTCYRPDVGYVQGMSFIAAVLILNLDTADAFIAFSNLLNKPCQMAFFRVDHGLMLTYFAAFEVFFEENLPKLFAHFKKNNLTPDIYLIDWIFTLYSKSLPLDLACRIWDVFCRDGEEFLFRTALGILKLFEDILTKMDFIHMAQFLTRLPEDLPAEELFASIATIQMQSRNKKWAQVLTALQKDSREMEKG | soluble |
| MHHHHHHSSGVDLGTENLYFQSMAHNKIPPRWLNCPRRGQPVAGRFLPLKTMLGPRYDSQVAEENRFHPSMLSNYLKSLKVKMGLLVDLTNTSRFYDRNDIEKEGIKYIKLQCKGHGECPTTENTETFIRLCERFNERNPPELIGVHCTHGFNRTGFLICAFLVEKMDWSIEAAVATFAQARPPGIYKGDYLKELFRRYGDIEEAPPPPLLPDWCFEDDEDEDEDEDGKKESETGSSASFG | soluble |
| MHHHHHHSSGVDLGTENLYFQSMGKVKATPMTPEQAMKQYMQKLTAFEHHEIFSYPEIYFLGLNAKKRQGMTGGPNNGGYDDDQGSYVQVPHDHVAYRYEVLKVIGKGSFGQVVKAYDHKVHQHVALKMVRNEKRFHRQAAEEIRILEHLRKQDKDNTMNVIHMLENFTFRNHICMTFELLSMNLYELIKKNKFQGFSLPLVRKFAHSILQCLDALHKNRIIHCDLKPENILLKQQGRSGIKVIDFGSSCYEHQRVYTYIQSRFYRAPEVILGARYGMPIDMWSLGCILAELLTGYPLLPGEDEGDQLACMIELLGMPSQKLLDASKRAKNFVSSKGYPRYCTVTTLSDGSVVLNGGRSRRGKLRGPPESREWGNALKGCDDPLFLDFLKQCLEWDPAVRMTPGQALRHPWLRRRLPKPPTGEKTSVKR | soluble |
| MHHHHHHSSGVDLGTENLYFQSMRPFLIGVSGGTASGKSTVCEKIMELLGQNEVEQRQRKVVILSQDRFYKVLTAEQKAKALKGQYNFDHPDAFDNDLMHRTLKNIVEGKTVEVPTYDFVTHSRLPETTVVYPADVVLFEGILVFYSQEIRDMFHLRLFVDTDSDVRLSRRVLRDVRRGRDLEQILTQYTTFVKPAFEEFCLPTKKYADVIIPRGVDNMVAINLIVQHIQDILNGDICKWHRGGS | soluble |
| MHHHHHHSSGVDLGTENLYFQSMSTDSVISSESGNTYYRVVLIGEQGVGKSTLANIFAGVHDSMDSDCEVLGEDTYERTLMVDGESATIILLDMWENKGENEWLHDHCMQVGDAYLIVYSITDRASFEKASELRIQLRRARQTEDIPIILVGNKSDLVRCREVSVSEGRACAVVFDCKFIETSAAVQHNVKELFEGIVRQVRLRRDSKEKN | soluble |
| MHHHHHHSSGVDLGTENLYFQSMTKTWTLKKHFVGYPTNSDFELKTSELPPLKNGEVLLEALFLTVDPYMRVAAKRLKEGDTMMGQQVAKVVESKNVALPKGTIVLASPGWTTHSISDGKDLEKLLTEWPDTIPLSLALGTVGMPGLTAYFGLLEICGVKGGETVMVNAAAGAVGSVVGQIAKLKGCKVVGAVGSDEKVAYLQKLGFDVVFNYKTVESLEETLKKASPDGYDCYFDNVGGEFSNTVIGQMKKFGRIAICGAISTYNRTGPLPPGPPPEIVIYQELRMEAFVVYRWQGDARQKALKDLLKWVLEGKIQYKEYIIEGFENMPAAFMGMLKGDNLGKTIVKA | soluble |
| MHISEVKTAFKIADVEYVKDSTKLNFNYLKDLKDENNQPLSQNILTQNVARVYLIVVNGEIKKIGGSQADGGIKSTLNIYKDGGVKGRPNIRSFGVWYFLYHTILTGAKIEFYMIYQPNFETQVKGLFGFCAIKDASISYKLLEQACLTDYRNNSNDALPEWNVQEQGKD | not soluble |
| MHLLLLHGFTSHPVLTLGPLSERLKEAGWEVRQPALPGHGTRPEDLLKVRFQDWLLAAEEAYLELPEPRGVVGLSMGGLLAAHLAARHPTKALVALAPAFALKNPLAPYLHWLIPRFPGPPSIEDPELRKRNPNYPYFPTRAVLELLALMRKTPEVLPRVKARALVVEAGKDRVVKGVDRYFALLGSPRKDHLVFPESGHDLLLDRDREEVARAVRDWLLASDNYLQ | soluble |
| MHLNNLNNFNNLENNGEYHCSGPIIKKPFRHIALTVPSSDITNFNEIFYVEPQYIAQAIRLTNTFQGAIDPLTLNFNFEKALQIANGLPNAGVTGTINQSVIHQTIEVSVMISQIKEIIRSVLGLVINSANFWNSVVSAITNTFTNLEPQVDENWIVWRNLSATQTSYFYKILFSIQNEDTGRFMAILPIAFEITVDVQKQQLLFITIKDSARYEVKMKALTVVQALDSYNAPIIDVFNVRNYSLHRPNHNILQNLNVNPIKS | soluble |
| MHNKWYWTFKHILWGPILRVYNRPEIHGLENIPDKGSAILASNHQAVMDSFYLPLMSPRQITFPAKQEYFTTPGFVGSLQRWFFTAVGQVPIDRTSKSASDDLLKTARMVLDRGDLFGIYPEGTRSPDGRIYRGKTGMARIALDTNVAVVPIAMIGSRDANPIGTWIPRPHKVVIKVGEAISPRSFVSDAGYDPDSYEAMRFFTDHVMKVLADLTGQQYVDLYAADVKKSLAAGKGYPEGA | not soluble |
| MHPIETPDKTFHDGDGVSELGTILPAWWLNQVQSELLAVLTAAGIQPDKSQPNQLLAALNRLAVVITGDQTVNGQKTFTAQTQFQSGIHLSANQTNWNGGHKAYIGADADNAHIVFGDDTLRLHGANNRISYNNHDIFHKANKPRFAEDIQGKPNTLSGYGIGNFKVETFRGDLNTLKTDGIYSLPTAVGSSNLPVENTACHIQVIAGTKHGWCRQLGYPAYTSDVYERHQTSSANDNWSAWKKLNSDGIPVGAIVSFPKAVQNPAGYLKANGTTFAQNTFPDLYRALGNSNRLPDLSRTDIGITAWFPSDQIPTGWLAFDDIRTRVTETAYPELYRLLTGKYGSIQNVPQAEDRFIRNAGNSLAVGTKQEDEIKRHVHKVFSHWTNHTDAAALGYEDRNERQRSALVSTWTDENLNDNGFLTPRSDSKMATGGDENRPKALVLKLCIKAADTLGEAVFWIKSHGETINAGALDAGTLAQGLQDKADRDHTHTAAQIQGLDEKISTAVAAQFTRQTIGGVDIVRFPDGTMIQTGSYRFTRSGGPIENEVVFPVAFADGNVKCFVSERHSERVTGDRRQHNWLFIRAKNHAAAIITNWYEGSCDWMAIGKAASGNAASSPIGPEIPETNEEPQRESGRTSTGPRNRRRRDGLLEALQD | not soluble |
| MHQNNGDYRVRGSRPSRSSEHAGPSLHCKKPEGSIRDTLRLSGSFKIYKEPMPELVCDIHLEKLAENIQKYSKIEERKYRENDMHVNDDSHSSDSRPTSDNEVSSSSDRNNDEPSVRRKRKSVENMCHEREHHGDHLQMQVASVIASNLGPMVEIVEKKLLQHKNAEKLLNDGREVFIKTLEEHNQKKEKVERKAKLVAIPPMKARNRRSSRNSLVYIDGPSTSESHSSMVQQVPIIDNIPEVLENETAVCSISSEADHNSRGIKDNQEFAIEISGEVSRTDDICDDFAVFLKKCTVLLTKFIDSYYDFRSTMKLKPEDAIEHWSAERLTKEEHAARVTRFDVAIARATRVQYNIDIKLLTKQSFVFDDDREAAINKRLARIERFVNEQHEEINWFCFSNFSLMDIGETKDRYCLGDFYDKAISMIPKVKDVPSVVQLAKECKMWSAFERILKQYNFEPLKVFEELQKMLEKDYFLPKGKIFCQFLLNVAQLFSYDVVKNEWSCIKQIDGTLFSGVPFDRDGNLLPTSQNSPTECSS | not soluble |
| MHRDSCPLDCKVYVGNLGNNGNKTELERAFGYYGPLRSVWVARNPPGFAFVEFEDPRDAADAVRELDGRTLCGCRVRVELSNGEKRSRNRGPPPSWGRRPRDDYRRRSPPPRRRSPRRRSFSRSRSRSLSRDRRRERSLSRERNHKPSRSFSRSRSRSRSNERK | soluble |
| MHRELLDALSVITEEEQRILDEQRGIDPQLYTEKKELIVDSEKLLKKGKLIQVRPHTRFVNFPKHKHNYVEVIYMCQGTTTHILNGSKVILEAGDLLFLNQNAEQEILPAGEQDIAVNFIVLPEFFDTAFSMMDMEEENALKEFLVGALCGKNDNTSYLYFHVAEILPIQNLVENMVWTIFYDQPNKRRCNQITMGLLLLQLLNHVDRMETGTAAFDRELTG | not soluble |
| MHRSTFIRTSGTSSRTLTARYRSQYTGLLVARVLFSTSTTRAQGGNPRSPLQIFRDTFKKEWEKSQELQENIKTLQDASGKLGESEAYKKAREAYLKAQRGSTIVGKTLKKTGETMEHIATKAWESELGKNTRKAAAATAKKLDESFEPVRQTKIYKEVSEVIDDGESSRYGGFITKEQRRLKRERDLASGKRHRAVKSNEDAGTAVVATNIESKESFGKKVEDFKEKTVVGRSIQSLKNKLWDESENPLIVVMRKITNKVGGFFAETESSRVYSQFKLMDPTFSNESFTRHLREYIVPEILEAYVKGDVKVLKKWFSEAPFNVYAAQQKIFKEQDVYADGRILDIRGVEIVSAKLLAPQDIPVLVVGCRAQEINLYRKKKTGEIAAGDEANILMSSYAMVFTRDPEQIDDDETEGWKILEFVRGGSRQFT | not soluble |
| MHRYPRPVSPPVYGPYGSGGHYNPYFHYGVSSFPSAPVHWPHLPSGHAAPPSYPMPYPKPGPLLPPPRPSFLAQFKNSDGTYDINKMMSTVGQMINTVNQVNGVLKGLLGTFKK | not soluble |
| MHTAEFLETEPTEISSVLAGGYNHPLLRQWQSERQLTKNMLIFPLFISDNPDDFTEIDSLPNINRIGVNRLKDYLKPLVAKGLRSVILFGVPLIPGTKDPVGTAADDPAGPVIQGIKFIREYFPELYIICDVCLCEYTSHGHCGVLYDDGTINRERSVSRLAAVAVNYAKAGAHCVAPSDMIDGRIRDIKRGLINANLAHKTFVLSYAAKFSGNLYGPFRDAACSAPSNGDRKCYQLPPAGRGLARRALERDMSEGADGIIVKPSTFYLDIMRDASEICKDLPICAYHVSGEYAMLHAAAEKGVVDLKTIAFESHQGFLRAGARLIITYLAPEFLDWLDEEN | soluble |
